Patent EP4653533A1 (JCR Pharmaceuticals Co., Ltd., dated 2025)
Read-outs that look alike come from different tables or passages of the source.

T1: recombinant monkey TfR (extracellular region of cynomolgus monkey transferrin receptor, N-terminal histidine … (cynomolgus monkey (Macaca fascicularis), UniProt Q5RDH6 89-760 (Pongo abelii entry)))
T1 construct: also called r monkey TfR; monkey TfR-ECD (Histag); not shown: histidine tag at the N-terminus
T1 chain: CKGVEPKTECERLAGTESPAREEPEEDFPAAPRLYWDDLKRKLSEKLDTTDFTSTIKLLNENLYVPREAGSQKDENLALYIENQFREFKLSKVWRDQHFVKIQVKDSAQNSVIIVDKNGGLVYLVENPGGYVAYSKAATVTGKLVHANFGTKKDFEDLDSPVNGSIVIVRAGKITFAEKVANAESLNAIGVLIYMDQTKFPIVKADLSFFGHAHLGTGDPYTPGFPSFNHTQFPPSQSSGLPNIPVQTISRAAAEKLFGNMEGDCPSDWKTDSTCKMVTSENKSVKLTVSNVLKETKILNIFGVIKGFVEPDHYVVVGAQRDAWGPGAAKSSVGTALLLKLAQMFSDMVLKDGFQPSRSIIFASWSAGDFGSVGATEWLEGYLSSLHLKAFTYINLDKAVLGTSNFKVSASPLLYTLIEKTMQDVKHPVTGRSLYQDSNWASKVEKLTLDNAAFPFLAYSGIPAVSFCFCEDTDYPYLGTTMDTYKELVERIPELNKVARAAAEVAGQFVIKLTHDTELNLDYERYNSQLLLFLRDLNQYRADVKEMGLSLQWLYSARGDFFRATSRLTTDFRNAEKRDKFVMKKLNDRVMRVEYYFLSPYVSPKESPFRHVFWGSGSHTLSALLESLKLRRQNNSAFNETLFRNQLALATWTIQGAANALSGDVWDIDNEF


How the values were obtained:
[1] = target: T1, recombinant monkey TfR (extracellular …); assay: calculated from BLI KD values; reference is the KD of the same peptide for hTfR
[2] = target: T2, recombinant mouse TfR (extracellular region of mouse transferrin receptor, N-terminal histidine tag) (mouse, UniProt Q62351 89-763); assay: as above
T2 construct: also called r mouse TfR; mouse TfR-ECD (Histag); not shown: histidine tag at the N-terminus

[3] = target: T1, recombinant monkey TfR (extracellular …); assay: BLI (OctetRED96), His-tagged TfR ECD on Ni-NTA biosensor, peptide in solution
[4] = target: T2, recombinant mouse TfR (extracellular …); assay: as above
[5] = target: T3, recombinant hTfR (extracellular region of human transferrin receptor, N-terminal histidine tag) (human, UniProt P02786 89-760); assay: as above
T3 construct: also called rhTfR; human TfR; not shown: histidine tag at the N-terminus

[6] = target: T1, recombinant monkey TfR (extracellular …); assay: as above

T2 sequence (Q62351 89-763): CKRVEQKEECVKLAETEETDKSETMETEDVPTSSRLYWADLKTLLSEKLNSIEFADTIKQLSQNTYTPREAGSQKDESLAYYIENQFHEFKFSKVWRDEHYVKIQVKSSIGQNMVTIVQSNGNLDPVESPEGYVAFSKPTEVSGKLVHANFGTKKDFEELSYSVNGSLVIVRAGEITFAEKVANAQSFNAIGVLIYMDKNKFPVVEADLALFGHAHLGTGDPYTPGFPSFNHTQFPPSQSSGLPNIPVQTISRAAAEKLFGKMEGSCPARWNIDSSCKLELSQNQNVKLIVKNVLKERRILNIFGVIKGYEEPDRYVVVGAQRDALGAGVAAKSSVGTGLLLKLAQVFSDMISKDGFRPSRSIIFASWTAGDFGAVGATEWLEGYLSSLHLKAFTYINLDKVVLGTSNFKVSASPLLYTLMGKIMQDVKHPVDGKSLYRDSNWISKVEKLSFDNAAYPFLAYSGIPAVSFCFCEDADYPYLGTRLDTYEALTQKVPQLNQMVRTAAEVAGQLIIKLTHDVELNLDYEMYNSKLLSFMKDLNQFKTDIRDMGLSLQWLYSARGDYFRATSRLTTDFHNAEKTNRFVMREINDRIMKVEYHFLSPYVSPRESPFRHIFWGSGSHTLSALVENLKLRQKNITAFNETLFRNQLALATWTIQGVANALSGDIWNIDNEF

relative value of the dissociation constant (KD with hTfR set to 1) [1] [fold] | relative value of the dissociation constant (KD with hTfR set to 1) [2] [fold] | Kd [3] [nM] | Kd [4] [nM] | Kd [5] [nM] | Kd [6] [nM] | Binder
8.84 | 5.7 | 82.4 | 5.31 | 0.932 | 8.24 | hTfR affinity peptide 1 (VHH, also called Clone 1; VHH(1)) VHH: QVQLVESGGGLVQPGESLRLSCAASGSIFDIYVMRWYRQAPGKQREWVASIYDGGRSDYEAVVKGRFIISRDNAKNTGYLQMNSLKPEDTAVYFCNVLIYAGRNYWGQGTQVTVSS
3.95 | 1.31 | 17.4 | 5.75 | 4.4 |  | hTfR affinity peptide 3 (VHH, It says only that the purified product was obtained in the same manner as peptide 1; also called Clone 2; VHH(3)) VHH: QVQLVESGGGLVQPGESLRISCAASGSIFDIYVMRWYRQAPGKQREWVASIYDGGRSDYVNVVKGRFTISRDNAKNTGDLQMNSLKPEDTAVYFCNVLTYPGRNYWGQGTQVTVSS
